Substitutions are numbered along the chain they refer to. Names may count otherwise. One block for each binder: values may come before it.
Experiments:
[1] = target: T1, IL-18 peptide NRPLFEDMTDSDCR (SEQ ID NO: 36) (human); assay: overlapping IL-18 peptide panel
T1 peptide: NRPLFEDMTDSDCR

[2] = target: T2, recombinant human IL-18 (rhIL-18) (human, UniProt Q14116 37-193, biotinylated (D-biotinyl-epsilon-aminocaproic acid NHS ester, 2:1 molar ratio of biotin to rhIL-18) in the BIAcore assay; not said to be biotinylated in the KG-1 assay); assay: SPR (BIAcore), biotinylated rhIL-18 on streptavidin chip, antibody in solution
T2 construct: also called full length human IL-18; biotinylated rhIL-18
Protocol: Real-time binding interactions between ligand (biotinylated recombinant human IL-18 (rhIL-18) immobilized on a biosensor matrix) and analyte (antibodies in solution) were measured by surface plasmon resonance (SPR) using the BIAcore system (Pharmacia Biosensor, Piscataway, N.J.). The system utilizes the optical properties of SPR to detect alterations in protein concentrations within a dextran biosensor matrix. Proteins are covalently bound to the dextran matrix at known concentrations. Antibodies are injected through the dextran matrix and specific binding between injected antibodies and immobilized ligand results in an increased matrix protein concentration and resultant change in the SPR signal.
Biotinylated rhIL-18 to be immobilized on the matrix via streptavidin was diluted in PBS running buffer (Gibco Cat. No. 14190-144, Gibco BRL, Grand Island, N.Y.) supplemented with 0.05% (BIAcore) surfactant P20 (Pharmacia BR-1000-54, Pharmacia Biosensor, Piscataway, N.J.). To determine the capacity of rhIL-18-specific antibodies to bind immobilized rhIL-18, a binding assay was conducted as follows. Aliquots of biotinylated rhIL-18 (25 nM; 10 μl aliquots) were injected through the streptavidin-coupled dextran matrix at a flow rate of 5 μl/min. Before injection of the protein and immediately afterward, PBS buffer alone flowed through each flow cell. The net difference in signal between baseline and approximately 30 sec. after completion of biotinylated rhIL-18 injection was taken to represent the binding value. Direct rhIL-18-specific antibody binding to immobilized biotinylated rhIL-18 was measured. Antibodies (20 μg/ml) were diluted in PBS running buffer and 25 μl aliquots were injected through the immobilized protein matrices at a flow rate of 5 μl/min. Prior to injection of antibody, and immediately afterwards, PBS buffer alone flowed through each flow cell. The net difference in baseline signal and signal after completion of antibody injection was taken to represent the binding value of the particular sample. Biosensor matrices were regenerated using 100 mM HCl before injection of the next sample.

[3] = target: T3, IL-18 peptide PLFEDMTDSDCRDNA (SEQ ID NO: 1) (human); assay: told in a figure legend; 2E1 selected by phage display on an IL-18 peptide epitope
T3 peptide: PLFEDMTDSDCRDNA

[4] = target: T2, recombinant human IL-18 (rhIL-18); assay: cell-based or functional assay
[5] = target: T2, recombinant human IL-18 (rhIL-18); assay: cell-based or functional assay; remark: listed apart in the source
[6] = target: T2, recombinant human IL-18 (rhIL-18); assay: SPR (BIAcore), biotinylated rhIL-18 on streptavidin chip
[7] = target: T2, recombinant human IL-18 (rhIL-18); assay: SPR (BIAcore), biotinylated rhIL-18, scFv

- binding result [1]: binds
- kon [2]: 2600 M⁻¹ s⁻¹
- binding result [3]: binds
- IC50 Value, KG-1 cell-based IL-18 neutralization assay (hIFN-gamma) [4]: 0.033 µM
B1: 2E1 (parent) ScFv (scFv, V domains shown)
VH: QVQLVQSGAEVKKPGASMKVSCKTSGYTFTGYYIHWVRQAHGQGFEWIGRLNPTTGDANFAEKFQGRVALTRDTSISTAYLQLDSLKSDDTAVYYCAGKEGAWGQGTLVTVSS
VL: SSELTQDPAVSVALGQTVRITCQGDSLRHFYPNWYQQKPGQAPVLVIYGKNNRPSGIPDRFSGSGSGNTGSLTITGAQAEDEADYYCGSRDSSGIHVVFGGGTKVTVLG
notes: Tested as single-chain Fv; also called single chain Fv version of antibody 2E1; 2E1 single chain antibody

- koff [2]: 6.18e-05 s⁻¹
- IC50 Value, KG-1 cell-based IL-18 neutralization assay (hIFN-gamma) [4]: 0.0028 µM
B2: 2E1 mutant L34S + H53R + H58Q (scFv, V domains shown)
VH: B1 VH with T54R, N59Q
VL: B1 VL with N33S

- koff [2]: 0.000169 s⁻¹
- IC50 Value, KG-1 cell-based IL-18 neutralization assay (hIFN-gamma) [4]: 0.015 µM
B3: 2E1 mutant L34S (scFv, V domains shown)
VH: B1 VH
VL: B1 VL with N33S

- IC50 Value, KG-1 cell-based IL-18 neutralization assay (hIFN-gamma) [4]: 0.0009 µM
B4: 2E1 (parent) IgG (antibody, V domains shown)
VH: B1 VH
VL: B1 VL

- koff [2]: 5.28e-05 s⁻¹
- IC50 Value, KG-1 cell-based IL-18 neutralization assay (hIFN-gamma) [4]: 0.0067 µM
B5: 2E1 mutant L34S + H53Y (scFv, V domains shown)
VH: B1 VH with T54Y
VL: B1 VL with N33S

- fold improvement over the parent antibody 2E1, KG-1 cell-based assay [5]: > 10 fold
- Kd [2]: 0.023 µM
- koff [2]: 6.82e-05 s⁻¹
- kon [2]: 2700 M⁻¹ s⁻¹
- fold improvement over the parent antibody 2E1 (BIAcore analysis) [6]: > 10 fold
- fold improvement over the parent antibody 2E1 [7]: > 10 fold
- IC50 Value, KG-1 cell-based IL-18 neutralization assay (hIFN-gamma) [4]: 0.003 µM
B6: 2E1 mutant L34S + H53R (2E1RS) (scFv, V domains shown)
VH: B1 VH with T54R
VL: B1 VL with N33S

- koff [2]: 0.00234 s⁻¹
- IC50 Value, KG-1 cell-based IL-18 neutralization assay (hIFN-gamma) [4]: 0.025 µM
B7: 2E1 mutant H53R (scFv, V domains shown)
VH: B1 VH with T54R
VL: B1 VL
